Bridge positions count the residues as written; N and C are the ends. Ends that are not written are not given here.
Experiments:
IGF-1 [1] = target: T1, IGF-1 (human, UniProt P05019 49-118); test: monovalent phage ELISA; soluble IGF-1 titrated against peptide-phage binding to immobilised IGF-1
IGF-1 [2] = target: T1, IGF-1; test: cell-based or functional assay
IGF-1 [3] = target: T1, IGF-1; test: displacement of 125I-IGF-1 (2 nM) from receptors on MCF-7 cells
Experimental: Cell were passaged weekly in media containing a 50/50 mix of high-glucose DMEM/ Ham's F12, with 10% fet al bovine serum and 10 mM HEPES pH 7.2. Cells were plated and grown overnight maintained at 37° C. and 5% CO₂. For IGF-1 iodination, 50 μg of IGF-1 was diluted into 200 μL of PBS and added to a tube coated with 100 μg of IODOGEN® 1,3,4,6-tetrachloro-3a-6β-diphenylglycouril) (Pierce Chemical Co.), incubated with 1 mCi of ¹²²⁵-Nal (10 μL) at room temperature for 10-15 minutes. Synthesized peptides and binding protein controls were preincubated with 2 nm ¹²⁵I IGF-1 for 40 minutes at 37° C. The samples were added to cells for 30 minutes. The cells were washed with media and lysed with 1N NaOH.

[4] = target: T2, phage displaying human IGF-1 (phage vector pIGF-g3) (human, UniProt P05019 49-118); test: competition phage ELISA: peptide against IGF-1 phage binding to IGFBP-1 on plate
T2 construct: Construct as in Dubaquie and Lowman; also called IGF-1 displaying phage; Phage IGF-1; not shown: g3 of the phage vector pIGF-g3 (M13 gene III protein)
Experimental: (§1) The IGF-1 displaying phage was titered against IGF bp1 and bp3 for a 500-1000× dilution for preincubation with serial dilutions the synthesized peptides and binding protein standards for 45 minutes. Immunosorbant plates were coated with IGF binding proteins and blocked with 0.5% TWEEN®-20 detergent and PBS and washed as above. The samples were added to the plates for 20 minutes, washed and detected as above. The experimental IC50 values are in Table 5.

[5] = target: T2, phage displaying human IGF-1 (phage …); test: competition phage ELISA: peptide against IGF-1 phage binding to IGFBP-3 on plate
Experimental: as §1

T1 sequence (P05019 49-118): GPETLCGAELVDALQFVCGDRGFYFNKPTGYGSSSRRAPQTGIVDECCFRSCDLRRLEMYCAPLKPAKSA
T2 sequence (P05019 49-118 limits assumed): as the sequence (P05019 49-118) above

Row | IC50 (IGF-1 [1]) | IGF-1 KIRA (IGF-1 [2]) | Insulin KIRA (IGF-1 [2]) | IC50 (IGF-1 [3]) | IC50 [4] | IC50 [5] | Molecule
1 | 209 µM |  |  |  |  |  | … (from UniProt P01241 27-217) (peptide)
2 |  | 84.9 µM | 5.48 µM | 5.12 µM | 1.4 µM | 2.93 µM | RNCFESVAALRRCMYG (disulfide 3-13, synthetic peptide; also called IGF-F1-1) [F1-1]
3 |  | 102 µM | 66.1 µM | 45.7 µM | 11.7 µM | 12.8 µM | FECLTSVEALRGCMYG (synthetic peptide) [F1-3]
4 |  | 20 µM | 32.6 µM | 15.3 µM | 15.5 µM | 9.2 µM | MDCLASVEALKWCMYG (synthetic peptide) [F1-2]

Source: patent US20030092631A1 (Genentech, published 2003)
